± gives the uncertainty stated by the source.
Assay: amyloid nucleation score (Sup35N fusion, yeast selection) (log enrichment); library NNK1; higher = more nucleation; inactive = no reads after selection
Outline: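 Sup35N fusions to peptides of 20 random codons were expressed in psi-negative yeast, induced 24 hours with 100 μM copper sulfate, and grown 7 days at 30°C on medium lacking adenine and uracil. Input and output plasmid inserts were sequenced by Illumina. The nucleation score is the DiMSum log enrichment of output over input reads, centred on the mode score of non-aggregating sequences. Sequences with under 100 input reads were excluded.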

Row | Substance | amyloid nucleation score
1 | VSFGIFMNESYV | 1.52 ± 0.098
2 | TVNRMIFFMRLLYTRVKL | -1.68 ± 2.7
3 | GAKFSTVSRENDDMHFAWLW | 1.19 ± 0.97
4 | CSDNV | 1.01 ± 0.49
5 | LLVSLSNCFLIWSSAGSMGG | 1.81 ± 0.23
6 | VCLANGHWATHMHYIFHYLS | -0.915 ± 0.73
7 | EDSLFRSVLILMSVMFIQVD | 1.05 ± 0.38
8 | WVCRSISPLVRTSLPRYWRN | inactive
9 | NGHHALLYMPFAQTC | -0.745 ± 1.2
10 | EMVLLNATFYYAYCHSNRLR | 0.227 ± 0.27
11 | AMNGVLVIGGV | -0.668 ± 1.7
12 | HYLCPVACRGRFVVSQPVNI | -1.14 ± 1.5
13 | GIAWALKLRLVDAYPGMSMS | 0.168 ± 0.72
14 | WSLVDDPLVFERLFWPCYQ | 0.142 ± 0.31
15 | TSHPGRCRGYASRASSEVFR | -0.038 ± 0.43
16 | RIYSFHILVS | -0.629 ± 0.38
17 | HMGVRMNHFFTSDLSVVMWF | 3.59 ± 0.12
18 | TCILDHGPSMGRHSLGALIL | -0.969 ± 1.1
19 | ESMWVGLKINAVSNYR | 0.3 ± 0.55
20 | NTKELVYKMGCGVRYHGKWG | 1.28 ± 0.71
21 | LLVWNVNGSAMSCNDRCLQS | 7.141 ± 0.049
22 | GGYMGL | -0.158 ± 0.35
23 | VQFSLGALFWWPWGR | 2.27 ± 0.22
24 | LWSTMICLVFMYPIILVNFT | 1.64 ± 0.36
25 | MFSYDFGMCGFYN | 0.971 ± 0.29

Row | Substance | amyloid nucleation score
26 | FPASNAQNLRLFQVGYGRPQ | 0.185 ± 1.1
27 | VRFKGMWHKQ | -1.04 ± 1.1
28 | RTKLVEHSMFCNGGEKRHTP | 0.574 ± 0.56
29 | KGGSPQYNGVTSMWWDRKFD | -0.255 ± 0.38
30 | YNKVDM | -0.316 ± 0.53
31 | GAFEGVFHRVMSDGRGAFAR | -0.289 ± 0.42
32 | GARVTLYAVS | -0.475 ± 0.36
33 | RWSLAWKIMCEL | 0.055 ± 0.3
34 | VLGMPSLRILYITCCSDMVC | 6.37 ± 0.046
35 | WSTLVKRSDFCVHWVLFGSG | -0.179 ± 0.46
36 | QLNLNLFACQCSTV | 8.072 ± 0.076
37 | VDRVGYIP | -0.506 ± 0.47
38 | FYPYN | 0.743 ± 0.79
39 | RGEKLQEVMSVGYWIGFFNN | 0.907 ± 0.27
40 | VCKWNSSIFLYNRPSVSAAV | 0.123 ± 0.4
41 | YCRFWVDFFVFESILDSPPN | 0.093 ± 0.32
42 | KICTYSRFC | 0.848 ± 0.39
43 | RFDVSMRYLSRSDVYDICAR | 0.177 ± 0.59
44 | FFGCCSRGARIDHVSRNHLL | 0.185 ± 0.52
45 | INKNCTANEP | -0.067 ± 0.23
46 | GSRNNWKTPWSDNHGTLWRC | -0.298 ± 0.47
47 | GRCVNVSCHIRRPQVGTPRA | 1.07 ± 0.8
48 | DAPVTSSGSML | 0.008 ± 0.23
49 | LLRLVSFCCFSNRN | 6.05 ± 0.053
50 | LDNWYISRFCCDVMTDANVD | -0.322 ± 0.8

Row | Substance | amyloid nucleation score
51 | SYVVYCHSAMRRKGSMGRYL | 0.468 ± 0.37
52 | FRFAMRYFRGIYELRNENRR | inactive
53 | CLTLPYYSIYAVGESRMFEW | 0.003 ± 0.27
54 | SRNVVLPL | 0.195 ± 0.43
55 | TLNSPECDPNLSLML | -0.555 ± 1.1
56 | IACFFQT | 1.66 ± 0.21
57 | MALMYLMVTRVDLALSL | 0.072 ± 0.34
58 | MSSIKQY | -1.07 ± 2.4
59 | MVVLRFAKCDSCMTSMAKIL | -0.045 ± 0.3
60 | KVFSVHRHCQESVVGAVLCS | -0.371 ± 0.73
61 | TRVFSCDACRKN | inactive
62 | STFFSY | inactive
63 | SLEVRNRCNVYVAAANLLVM | 2.76 ± 0.095
64 | RANSGNVTFMVRPAFMVVLK | -0.389 ± 0.78
65 | QLCGFITCIISMSLPGYQCE | 7.816 ± 0.052
66 | IWDSVLF | 1.57 ± 0.33
67 | LSLNSHYCDDCVWLFR | 1.02 ± 0.45
68 | VCGEYEITVKIISVSRSNKC | 1.45 ± 0.26
69 | FQVLYNGVMCHYSCWCVWKV | 1.05 ± 0.19
70 | GLVHMPGHLRVLRQLLSA | 0.377 ± 0.56
71 | ARCCWRG | -0.849 ± 1.1
72 | LALVFLLMFVHQSDDYKLRN | 2.89 ± 0.17
73 | DFLFNGLNITRCYFA | 0.193 ± 0.72
74 | GSVRRKRHGHLDV | inactive
75 | LSKYP | 0.383 ± 0.35

Row | Substance | amyloid nucleation score
76 | SKSGLDDGHDA | -0.335 ± 0.23
77 | LNSRHVNSYF | 0.869 ± 0.48
78 | SLINTRVPPLENNAC | -0.443 ± 0.51
79 | NIFWST | 0.361 ± 0.78
80 | RPLVRQPGEDYIFGLSSMCL | -0.203 ± 0.49
81 | FYGMDLSVSRFF | 0.031 ± 0.47
82 | TIVFMRAHIFW | 0.788 ± 0.25
83 | FFGMLDPSTER | -0.73 ± 0.36
84 | EFDTQSCQVDTVAVYIEPSL | 0.793 ± 0.65
85 | EFKLDNFQIVGYLLLTRRLI | 0.222 ± 0.32
86 | GPDNVCCGSRPKISDVGYGM | inactive
87 | RLFALLWNDFDRSGVAMPVL | -0.379 ± 0.36
88 | RFFFGYAK | 2.02 ± 0.2
89 | MYLITGKIARNAKTDSPGSN | -0.52 ± 0.68
90 | TAVVENCLPIWVVYSSKMY | 0.018 ± 0.6
91 | IIGQLRI | 0.454 ± 0.66
92 | CFNVSVSGEDSFLFGYGWHI | 0.159 ± 0.66
93 | VLRKTFGCFETMV | 3.92 ± 0.073
94 | VGVVGDYDLQIS | -1.2 ± 2.4
95 | NYRQHHKTSRVLRLDVGTEP | -0.252 ± 0.3
96 | RILEGVFS | inactive
97 | GMCIRNRMRDNVNSLSSACD | 0.362 ± 1.4
98 | SNFINLGRWFRIDL | 0.377 ± 0.53
99 | VYASGWAQISVTGGTWLRGD | 0.131 ± 0.42
100 | FMTFVYTGTSFSR | 0.523 ± 0.71

Row | Substance | amyloid nucleation score
101 | FLKDIYVYVTLVCHLRSLAS | -0.589 ± 0.49
102 | FISVMTLRLEKFEVVGDMKL | -0.43 ± 0.39
103 | LLNFCIWAKCWYRLVCNC | 0.209 ± 0.93
104 | CRLVVMVIVQLHGIDFELAL | 0.951 ± 0.54
105 | SCLPDQMKVVVPLMWLKFSR | -0.266 ± 0.33
106 | YYVLFNAFQLIPLGWGNYS | inactive
107 | DDSSDTEVRLGYALAGIKVG | -0.406 ± 0.34
108 | FLNMQYRGLQ | 3.42 ± 0.11
109 | CSNEK | 0.319 ± 0.97
110 | NGFLHIRLRISALCELL | 0.137 ± 0.57
111 | WVKCLPGGLQAFWYS | -0.369 ± 1
112 | NTRYYFENNMR | -0.599 ± 0.4
113 | AGRSWSCMLVTVWSRTRVPL | 0.351 ± 0.6
114 | YLCGHLMNTLYAILNVRRAL | 0.888 ± 0.9
115 | ILLPWGMCWWMLCR | 0.036 ± 0.55
116 | WFSDMTAFLC | inactive
117 | CFFPVSPFFIIRGKIQIFYL | -2.51 ± 2.7
118 | LLPRGESHVKLKDRGSRMPW | 0.921 ± 0.5
119 | WTLCMPKCGWRQSFSLRSRR | -0.294 ± 0.47
120 | LTCKMDIDKVWVGDMLYS | -0.677 ± 0.62
121 | VAFVLLTQVGGWRLGIWRRK | -1.09 ± 0.66
122 | DVLVHLP | -0.917 ± 1.2
123 | RGLGWHHRLSCYRSAGFARA | -0.719 ± 2.1
124 | TGKNSC | 3.44 ± 0.099
125 | SSSWTTCY | 2.15 ± 0.1

Row | Substance | amyloid nucleation score
126 | RRSYVSSEMNTSKRKSCPLS | 0.659 ± 0.45
127 | TSVSKLQHWIYFTFY | -0.834 ± 1.4
128 | FPNVDNNV | inactive
129 | MGLQTFVVTRMV | -0.758 ± 0.42
130 | VLYQRVRTGTTYGRARRLDV | -0.622 ± 1.7
131 | VLMITGVCCSHNMLVLADKR | 6.609 ± 0.057
132 | SYISLSLISFSVGGSSHFSM | 6.96 ± 0.077
133 | QLFVRFGRSARLVIAESQKA | -0.077 ± 0.33
134 | TSPDYPRRYVQMSRR | 0.507 ± 0.52
135 | YQTWRQWLLFACRVSECYDM | -0.508 ± 1.1
136 | VIYSSIHKLSDGDRVENPRS | -0.933 ± 0.96
137 | VWMLTMSAFKVYWLNFINYA | -0.037 ± 0.22
138 | EYIMYYWIRIVYFVINGYLV | 0.534 ± 0.36
139 | GSLAW | -0.972 ± 0.94
140 | FKRFLSLVCV | 0.1 ± 0.53
141 | VAAFEIMHLLISCDNRCRFQ | 0.337 ± 0.38
142 | AVRWLHIGWSKETGRNCDCR | 0.671 ± 0.64
143 | AISVWMSMNGPITPDR | 0.907 ± 0.59
144 | LTKRVGFDEMSLPHQDASSV | -0.289 ± 0.36
145 | ALPREWKCMSLLFENGSGNS | inactive
146 | NSKRTGASLRIELRLQFRKR | -0.215 ± 0.39
147 | FYIVCRNFKTYLPSLGF | -1.12 ± 2.4
148 | DLADNVRKMGEFTSSVANIL | 0.204 ± 0.4
149 | WIPGRLLSAVKVGSNSLVF | -0.637 ± 0.62
150 | DTLGRSLLYYIRYSRVNFPV | inactive

Row | Substance | amyloid nucleation score
151 | SNCERAIAKSHLVARPFSVS | 0.16 ± 0.73
152 | LAPNNYAFHVNKSWGMNLVW | 1.05 ± 0.2
153 | TCMTRTLYIL | -0.092 ± 0.37
154 | LFIKFGTHVRYILA | -0.202 ± 0.42
155 | KSVLQFETMGFVDLYFSFNL | 5.49 ± 0.091
156 | AAKRM | 1.11 ± 0.52
157 | MTVYLITNRHLR | 0.905 ± 0.64
158 | YKFCVILSNGRQCVMALVRP | 0.286 ± 1.2
159 | ELRYCEFTCSISWA | 0.744 ± 0.36
160 | DYFIVGTSVGGDSVTLDNQM | 0.042 ± 0.34
161 | RWDYDWNQVSCNDSRIGKLT | 0.565 ± 0.61
162 | RVKYAGGPIGYLFCLWVLCW | -0.895 ± 1.5
163 | SPRAWRMGHGLVGWVMEKKG | 0.476 ± 1.1
164 | RGNPNTVGIITWCDDVFFFQ | 3.07 ± 0.25
165 | ATAHCWLRQESGEFGDLWIP | 0.276 ± 0.19
166 | CFYNKRLCGRPFMLVWQNYS | 0.161 ± 0.56
167 | CICRRVSKTVLSLQANEAPC | -0.561 ± 0.41
168 | GAKEDERSNWSVVNMLGREL | -0.341 ± 0.39
169 | DETDQNTFTTSIV | 1.23 ± 0.28
170 | GSCDMKVVVKCHCEYGMKQD | 2.24 ± 0.13
171 | NFNRRRLCIIMKFDDPPLHG | 0.102 ± 0.24
172 | FGLEK | 1.25 ± 0.64
173 | WARCTGIMFGS | 0.027 ± 0.97
174 | LLASAIHLNRTADAMKEYYP | -0.036 ± 0.39
